The values below come from US20240327502A1 (Merck Sharp & Dohme, published 2024).

Test [1] has as its target T1, Processed stabilized hMPV PreF trimer (115BV) (human metapneumovirus, strain B2).
T1 construct: also called Processed hMPV PreF trimer; processed PreF
Briefly: BLI, ratio to unprocessed PreF trimer.

In test [2] the target is T2, Unprocessed hMPV PreF trimer (human metapneumovirus, strain B2).
T2 construct: also called Unprocessed hMPV WT PreF trimer; unprocessed hMPV PreF trimeric antigen
Briefly: BLI, mAb on anti-human Fc sensor. For orientation: Biolayer interferometry detects binding as a change in optical thickness at a sensor tip.

Test [3] has as its target T3, hMPV PostF trimer (human metapneumovirus, strain B2).
T3 construct: also called MPV PostF (dPFv1)
As to the kind of experiment: BLI, mAb on anti-human Fc sensor.

The target in test [4] is T1, Processed stabilized hMPV PreF trimer …. Briefly: BLI, mAb on anti-human Fc sensor.

B1: M3C11 (antibody, V domains shown)
VH: QVQLQESGPGLVKPSETLSLTCTVSGGSLSSYCWSWIRQPPGKGLEWIGYIYYSGGTNYNPSLKSRVTISVDTSKNQFSLNLSSVTAADTAVYYCARGEASGYLNYYFDYWGQGTLVAVSS
VL: SYELTQPPSVSVSPGQTASITCSGHKLGDKYAYWYQQKPGQSPVLVIYQDNKRPSGIPERFSGSNSGNTATLTISGTQAMDEADYYCQAWDSGTVFGGGTKLTVL
notes: IgG
As for B1, the “processed/unprocessed PreF trimer binding ratio” value in test [1] stood at 0.25. Also, the Octet binding response in test [2] was 0.317 nm; in test [3] it was 0.433 nm; in test [4], 0.0794 nm.

B2: M3A01 (antibody, V domains shown)
VH: EVQLVESGGGLVKPGGSLRLSCSVSAFSISGYNMHWVRQAPGKGLEWVSSITGGSNYINYADSVKGRFTISRDNAQNSLYLQMKSLRAEDTAVYYCARETQPSPGSFDSWGQGTLVTVSS
VL: QSVLTQPPSVSGAPGQRVTISCTGSSSNIGAGYDVNWYQQLPGTAPKLLIYGNYNRPSGVPDRFSASKSGTSASLAITGLQAEDEADYWCQSYDTSLSGWIFGGGTKLTVL
notes: IgG
On to B2, for which, in test [1], the “processed/unprocessed PreF trimer binding ratio” value was 1.04. The Octet binding response in test [2] is 0.251 nm; in test [3] it was -0.062 nm; in test [4], 0.261 nm.

B3: M3E04 (antibody, V domains shown)
VH: EVQLVESGGGLVKPGGSLRLSCAGSGFTFSSYSMNWVRQAPGKGLEWVSSISASSSYIYYADSLKGRFTISRDNAKNSLYLQMNSLRAEDTAVYYCARANYGSGNYYNPKWFDPWGQGTLVTVSS
VL: QSVLTQPPSVSGAPGQRVTISCTGSSSNIGAGYDVHWYQQFPGTAPKVLIYGNNNRPSGVPDRFSGSKSGTSASLAISGLQAEDEADYYCQSYDSSLSGSIFGGGTKLTVL
notes: IgG
In the case of B3, the “processed/unprocessed PreF trimer binding ratio” value in test [1] is 0.13. Further, the Octet binding response amounted to 0.3 nm in test [2], 0.0262 nm in test [3] and 0.0401 nm in test [4].

B4: M2D11 (antibody, V domains shown)
VH: QVQLQQWGAGLLKPSETLSLTCAVSGGSFSGYHWTWIRQPPGKGLEWIGEVDHGGNTNYNPSLMSRVTISVDMSTKQFSLRLTSMTAADTAVYYCARGFGVVINNWFDPWGQGTLVTVTS
VL: DIQMTQSPSSLSASVGDRVTITCRASQTISSYLNWYQQKPGKAPNLLIYTVSTLQSGVPSRFSGSGSGTDFTLTISSLQPEDFATYYCQQSYGAPYTFGQGTKLEIK
notes: IgG
On to B4, for which, in test [1], the “processed/unprocessed PreF trimer binding ratio” value amounted to 1.06. Besides, the Octet binding response was determined as 0.41 nm in test [2], 0.43 nm in test [3] and 0.436 nm in test [4].

B5: M4A06 (antibody, V domains shown)
VH: EVQLVESGGGLVRPGGSLRLSCAASGFSLTTDEVNWVRQAPGKGPEWVSFISASGHTIYYADSVKGRFTISRDNGRNSVYLQMNSLRAEDTAVYYCARVGRLGGVGYYYALGPFDLWGQGTMVTVSS
VL: EIVLTQSPGTLSLSPGERATLSCRASQSITSNYLAWYQQKPGQAPRLLIYGASSRATGIPDRFSGSGSGTDFTLTISRLQPEDFAVYYCQQYGSSLYIFGQGTKLEIK
notes: IgG
Take B5: the “processed/unprocessed PreF trimer binding ratio” value in test [1] stood at 0.78. For the same molecule, the Octet binding response was determined as 0.36 nm in test [2], 0.449 nm in test [3] and 0.281 nm in test [4].

B6: M2C06 (antibody, V domains shown)
VH: QVQLVQSGAEVKKPGSSVKVSCRPSGGTFSNDILSWVRQAPGQRLEWMGRIIPLVNMTNIAQKFQGRLTLVADKSTAIVHLELGSLRAEDTAIYYCVRDLPSAGFPAPFDIWGQGTRVTVSA
VL: EIVLTQSPGSLSLSPGARATVSCRASQSLNSASLVWYQQRVGQAPRLLMFGASNRATGIPDRFSGSGSGTDFTLTISRLEPEDFAVYYCQQYAFSPPTFGQGTKVEIK
notes: IgG
For B6, the “processed/unprocessed PreF trimer binding ratio” value in test [1] came to 1.16. Also, the Octet binding response in test [2] was determined as 0.408 nm; in test [3] it was 0.436 nm; in test [4], 0.472 nm.

B7: M2C07 (antibody, V domains shown)
VH: QVQLQESGPGLVAPSQTLSLICDVSGDSVTSGAYSWSWIRQHPVKGLEWIAYINYSGRTNYNPSLQSRLVISVDRSKNQFSLRLSSVTAADTAVYYCARANVVGYSGFYFDYWGQGTLVAVSS
VL: DIQMTQSPSSLSASVGDTVTITCRASQSVGAYLNWYQQKPGKAPKLLVFAGSSLQTGVPSRFSGRGSRTEFTLTITNLQREDFASYYCQQSLGDFLTFGGGTKVEIK
notes: IgG
For B7, in test [1], the “processed/unprocessed PreF trimer binding ratio” value was 1.05. Further, the Octet binding response in test [2] came to 0.418 nm; in test [3], 0.454 nm; in test [4], 0.44 nm.

B8: M2D03 (antibody, V domains shown)
VH: QVQLQESGPGLVAPSQTLSLICDVSGDSVTSGAHSWSWIRQHPVKGLEWIAYINYSGRTNYNPSLQSRLVISVDRSKNQFSLRLSSVTAADTAVYYCARANVVGYSGYYFDYWGQGTLVAVSS
VL: DIQMTQSPSSLSASVGDRVTITCRASQSVGAYLNWYQQKPGKAPKLLIFAGSSLQTGVPSRFSGRGSRTEFTLTISNLQREDFATYYCQQSLGDFLTFGGGTKVEIK
notes: IgG
For B8, in test [1], the “processed/unprocessed PreF trimer binding ratio” value worked out at 1.1. Further, the Octet binding response in test [2] came out at 0.425 nm; in test [3] it was 0.503 nm; in test [4] it was 0.466 nm.

B9: M3A08 (antibody, V domains shown)
VH: EVQLVESGGGLVKPGGSLRLSCAASGFSITSYGMHWVRQAPGKGLEWVSSISSSSSYISYRDSVKGRFTVSRDNAGNSLSLQMNSLRGEDTAVYHCARDAGLVPPWMDSWGQGTLVIVSS
VL: QSVLTQPPSVSGAAGQRVTISCTGSSSNLGTGYDVHWYRQQPGTAPKLIMFGNTNRPSGVPGRFSGSRSGTSASLAITGLQADDEADYYCQSYDSSLGGLVFGGGTKLTVL
notes: IgG
As to B9, the “processed/unprocessed PreF trimer binding ratio” value in test [1] was determined as 0.59. Moreover, the Octet binding response was 0.422 nm in test [2], -0.0217 nm in test [3] and 0.249 nm in test [4].

B10: M2B06 (antibody, V domains shown)
VH: QVQLQESGPRLVKPSGTLSLTCAVSGASITSSHWWTWVRQPPGKGLEWIGRIFHSGSTNYNPSLKSRVTISLDKSRNQFSLTLTSVTAADTAVYYCARDDQIVVMPAGFDRWGQGALVIVSS
VL: DIQMTQSPSSLSASVGDRVTITCRASQTISSYLNWYQQTPGKAPNLLIYGASRLQGGVPSRFSGSGSGTDFTLTISSLQPEDFAIYFCQQSKSIPYTFGQGTRLEIK
notes: IgG
Take B10: the “processed/unprocessed PreF trimer binding ratio” value in test [1] stood at 1.03. In addition, the Octet binding response in test [2] was determined as 0.389 nm; in test [3], 0.436 nm; in test [4] it was 0.401 nm.

B11: M3E10 (antibody, V domains shown)
VH: QVQLVQSGAEVKKPGSSVKVSCKASGGTINSYAISWVRQAPGQGPEWLGGIIPIFGTANYAQNFPGRVTITADASTSTVYMELSSLRSDDTAIYYCARGTRYIAVMVPSMQDYYFFGMDVWGQGTTVTVSS
VL: DIQLTQSPSFLSASVGDRVTITCRASQGISSYLAWYQQKPGQAPKLLIYAASTLQSGVPSRFSGSGSGTEFTLTISSLQPEDFATYYCQQVTSYPFSITFGQGTRLEIK
notes: IgG
Take B11: the “processed/unprocessed PreF trimer binding ratio” value in test [1] was 0.48. The Octet binding response stood at 0.351 nm in test [2], 0.0082 nm in test [3] and 0.17 nm in test [4].

B12: M3C04 (antibody, V domains shown)
VH: EVQLVQSGAEVKKPGESLKISCKGSGYNFANYWIGWVRQMPGKGLEWMGIIYPGDSDTRRNPSFQGHVTMSVDQSISTAYLQWSSLKASDTAMYYCARPLAVSAFDIWGQGTMVTVSS
VL: DIQMTQSPSSLSASVGDKLTITCRASQSISNYLNWYQQKSGKAPKLLIYAASSLQSGVPSRFSGSGSGTDFTLTISSLQPEDFATYYCQQSASTPHTFGQGTKVEIV
notes: IgG
In the case of B12, in test [1], the “processed/unprocessed PreF trimer binding ratio” value amounted to 0.82. The Octet binding response in test [2] was found to be 0.379 nm; in test [3] it was 0.409 nm; in test [4] it was 0.31 nm.

B13: M3D05 (antibody, V domains shown)
VH: QVQLVQSGAEVKQPGASVKVSCKASGYTFSGYYIQWVRQAPGQGLEWMGWINPNSGGTNFAQKFQGRVTMTSDTSTSAAYMELSSLRSDDTAVYYCVRGQQLTRQYYFGMDVWGQGTTVTVSS
VL: QSVLTQPPSVSGAPGQRVIISCSGSSSNIRSNAVNWYQQLPGKAPKLLIFYDGLLPSGVSDRFSGSKTGNSASLAISGLQSEDEADYYCAAWDDSLNGPVFGGGTKLTVL
notes: IgG
Consider B13, for which the “processed/unprocessed PreF trimer binding ratio” value in test [1] was 0.25. The results for the Octet binding response in test [2], in test [3] and in test [4] were 0.338 nm, 0.539 nm and 0.0831 nm, respectively.

B14: M3D10 (antibody, V domains shown)
VH: QVQLQESGPGLVKPSETLSLTCTVSGGSVSTYYWTWIRQPPGKGLDWIGYIYHNGNINYNPSLKSRVTMSVDTSKNQFSLKLTSVTAADTALYYCATVSFIGYSLYYFDRWGQGTLVTVSS
VL: DIQMTQSPSSLSASVGDRVTITCRASQNIASFLNWYQQRPGKAPDLLIYAASTLQTGVPSRFSGSGSGTDFTLAISSLQPEDFATYYCQQSYNTPFTFGQGTKLEIK
notes: IgG
Consider B14, for which, in test [1], the “processed/unprocessed PreF trimer binding ratio” value is 1.04. Further, the Octet binding response in test [2] was 0.38 nm; in test [3], 0.473 nm; in test [4] it was 0.397 nm.

B15: M7D5 (antibody, V domains shown)
VH: QVQLVQSGAEVKKPGSSVKVSCKASGGTLSNYAISWVRQAPGQGLEWMGGIIPIFGTAMYAHNFQDRVTFTADESTNTVYMAVSRLTSDDTAVYYCAQDRTVTKYAHGLDVWGQGTTVTVSS
VL: DIQMTQSPSSLSASVGDRITITCPASQSLLTYLNWYQQKPGKAPKLLIYSASELPSGVPSRFSGSGSGTEFTLTVTGLQPDDFATYYCQQSHTTPLTFGGGTKVEIKR
notes: IgG
With B15, the “processed/unprocessed PreF trimer binding ratio” value in test [1] was determined as 1.17. For the same molecule, the Octet binding response in test [2] came out at 0.296 nm; in test [3], 0.0826 nm; in test [4], 0.347 nm.
